{"source": "paper PMC12680531", "about": "“A novel TM4SF4-targeting therapeutic antibody candidate with antitumor activity by blocking IGF1R and CD44 signaling and downregulating PD-L1 and B7-H4” (Theranostics, 2026)", "binders": {"B1": {"name": "murine anti-hTM4SF4 monoclonal antibody 2B7 (antibody, V domains shown)", "VH": "EVKLEESGPGILQPSQTLSLTCSFSGFSLSTYGIGVSWIRQPSGKGLEWLAHIWWNDNKYYNTALKSRLTISKDTSNNQVFLKIASVDTADTATYYCARKEGSSAPFAYWGQGTLVTVSA", "VL": "not shown", "notes": "VH of murine 2B7; mouse IgG1 heavy chain constant region; Vκ of murine 2B7; mouse kappa light chain constant region; murine IgG1, kappa; also called murine 2B7; anti-hTM4SF4 mAb 2B7; source: murine hybridoma, purified from culture supernatant (protein G chromatography)"}}, "biological_target": "T1, biotinylated hTM4SF4 (T126-E140) peptide containing a GSAGGS spacer (Homo sapiens, also: biotin, position not given here, GSAGGS spacer, position not given here)", "T1 construct": "human TM4SF4, residues T126-E140 of the large extracellular loop; also called biotinylated hTM4SF4 peptide; hTM4SF4 peptide", "T1 chain": "TWGYPFHDGDYLNDE", "test": "SPR; Biacore T200; biotinylated hTM4SF4 peptide with GSAGGS spacer immobilised on a streptavidin chip; antibodies in two-fold dilutions (128-1 nM or 512-16 nM) in HBS-EP+; 25°C; 30 μL/min; 1:1 binding model", "conditions": "both partners purified", "note": "No end group written: not given here."}
{"binder": "B1", "values": [{"measurement": "Kd", "result": 2.66, "unit": "nM"}]}
